US20130336893A1 (Sanofi, published 2013)
*1 amine or outer side, *2 acyl side, *3 side chain or, on linkers, in order; H or OH if unused. Where no end group is shown, it is not given here. Side-chain parts run from the residue outwards. [ ]: non-standard residue; d: D form. The star is where a group is joined. Desaminohistidyl = O=C(CCc1c[nH]cn1)*; Ser(Me) = COC[C@H](N[*:1])C(=O)[*:2]; Palmitoyl = CCCCCCCCCCCCCCCC(=O)*; NMeQ = CN[C@@H](CCC(N)=O)C(=O)O; GABA = NCCCC(=O)O

Assays:
human glucagon receptor = human glucagon receptor (human, UniProt P47871 26-477); assay: cell-based or functional assay
human GLP-1 receptor = human GLP-1 receptor (human, UniProt P43220 24-463); assay: cell-based or functional assay

Sequence of human glucagon receptor (P47871 26-477): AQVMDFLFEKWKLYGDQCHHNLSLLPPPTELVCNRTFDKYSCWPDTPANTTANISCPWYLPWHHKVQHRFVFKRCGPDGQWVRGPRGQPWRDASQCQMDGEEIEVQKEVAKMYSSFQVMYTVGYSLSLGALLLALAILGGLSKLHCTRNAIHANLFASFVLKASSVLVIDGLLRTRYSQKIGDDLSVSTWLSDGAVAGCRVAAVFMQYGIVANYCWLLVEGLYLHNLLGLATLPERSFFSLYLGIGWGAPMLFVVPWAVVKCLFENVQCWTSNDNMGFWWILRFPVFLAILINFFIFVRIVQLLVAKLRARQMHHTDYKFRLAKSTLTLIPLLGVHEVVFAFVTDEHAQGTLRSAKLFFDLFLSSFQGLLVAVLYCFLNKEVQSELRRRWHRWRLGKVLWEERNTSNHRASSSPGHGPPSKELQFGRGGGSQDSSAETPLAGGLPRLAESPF

Row | Binder | EC50 hGlucagonR (cAMP formation) (human glucagon receptor) | EC50 hGLP-1R (cAMP formation) (human GLP-1 receptor)
1 | H[dS]QGTFTSDLSKQMDSRRAHDFIEWLKNGGPSSGAPPPS-NH2 (N-terminus assumed; SMILES CC[C@H](C)[C@H](NC(=O)[C@H](Cc1ccccc1)NC(=O)[C@H](CC(=O)O)NC(=O)[C@H](Cc1c[nH]cn1)NC(=O)[C@H](C)NC(=O)[C@H](CCCNC(=N)N)NC(=O)[C@H](CCCNC(=N)N)NC(=O)[C@H](CO)NC(=O)[C@H](CC(=O)O)NC(=O)[C@H](CCSC)NC(=O)[C@H](CCC(N)=O)NC(=O)[C@H](CCCCN)NC(=O)[C@H](CO)NC(=O)[C@H](CC(C)C)NC(=O)[C@H](CC(=O)O)NC(=O)[C@H](CO)NC(=O)[C@@H](NC(=O)[C@H](Cc1ccccc1)NC(=O)[C@@H](NC(=O)CNC(=O)[C@H](CCC(N)=O)NC(=O)[C@@H](CO)NC(=O)[C@@H](N)Cc1c[nH]cn1)[C@@H](C)O)[C@@H](C)O)C(=O)N[C@@H](CCC(=O)O)C(=O)N[C@@H](Cc1c[nH]c2ccccc12)C(=O)N[C@@H](CC(C)C)C(=O)N[C@@H](CCCCN)C(=O)N[C@@H](CC(N)=O)C(=O)NCC(=O)NCC(=O)N1CCC[C@H]1C(=O)N[C@@H](CO)C(=O)N[C@@H](CO)C(=O)NCC(=O)N[C@@H](C)C(=O)N1CCC[C@H]1C(=O)N1CCC[C@H]1C(=O)N1CCC[C@H]1C(=O)N[C@@H](CO)C(N)=O) [SEQ ID NO: (29)] | 0.149 nM | 0.028 nM
2 | [Desaminohistidyl]SQGTFTSDLSKQMDSRRAQDFIEWLKNGGPSSGAPPPS-NH2 (SMILES CC[C@H](C)[C@H](NC(=O)[C@H](Cc1ccccc1)NC(=O)[C@H](CC(=O)O)NC(=O)[C@H](CCC(N)=O)NC(=O)[C@H](C)NC(=O)[C@H](CCCNC(=N)N)NC(=O)[C@H](CCCNC(=N)N)NC(=O)[C@H](CO)NC(=O)[C@H](CC(=O)O)NC(=O)[C@H](CCSC)NC(=O)[C@H](CCC(N)=O)NC(=O)[C@H](CCCCN)NC(=O)[C@H](CO)NC(=O)[C@H](CC(C)C)NC(=O)[C@H](CC(=O)O)NC(=O)[C@H](CO)NC(=O)[C@@H](NC(=O)[C@H](Cc1ccccc1)NC(=O)[C@@H](NC(=O)CNC(=O)[C@H](CCC(N)=O)NC(=O)[C@H](CO)NC(=O)CCc1c[nH]cn1)[C@@H](C)O)[C@@H](C)O)C(=O)N[C@@H](CCC(=O)O)C(=O)N[C@@H](Cc1c[nH]c2ccccc12)C(=O)N[C@@H](CC(C)C)C(=O)N[C@@H](CCCCN)C(=O)N[C@@H](CC(N)=O)C(=O)NCC(=O)NCC(=O)N1CCC[C@H]1C(=O)N[C@@H](CO)C(=O)N[C@@H](CO)C(=O)NCC(=O)N[C@@H](C)C(=O)N1CCC[C@H]1C(=O)N1CCC[C@H]1C(=O)N1CCC[C@H]1C(=O)N[C@@H](CO)C(N)=O) [SEQ ID NO: (24)] | 0.168 nM | 0.264 nM
3 | HS[NMeQ]GTFTSDLSKQMDSRRAQDFIEWLKNGGPSSGAPPPS-NH2 (N-terminus assumed; SMILES CC[C@H](C)[C@H](NC(=O)[C@H](Cc1ccccc1)NC(=O)[C@H](CC(=O)O)NC(=O)[C@H](CCC(N)=O)NC(=O)[C@H](C)NC(=O)[C@H](CCCNC(=N)N)NC(=O)[C@H](CCCNC(=N)N)NC(=O)[C@H](CO)NC(=O)[C@H](CC(=O)O)NC(=O)[C@H](CCSC)NC(=O)[C@H](CCC(N)=O)NC(=O)[C@H](CCCCN)NC(=O)[C@H](CO)NC(=O)[C@H](CC(C)C)NC(=O)[C@H](CC(=O)O)NC(=O)[C@H](CO)NC(=O)[C@@H](NC(=O)[C@H](Cc1ccccc1)NC(=O)[C@@H](NC(=O)CNC(=O)[C@H](CCC(N)=O)N(C)C(=O)[C@H](CO)NC(=O)[C@@H](N)Cc1c[nH]cn1)[C@@H](C)O)[C@@H](C)O)C(=O)N[C@@H](CCC(=O)O)C(=O)N[C@@H](Cc1c[nH]c2ccccc12)C(=O)N[C@@H](CC(C)C)C(=O)N[C@@H](CCCCN)C(=O)N[C@@H](CC(N)=O)C(=O)NCC(=O)NCC(=O)N1CCC[C@H]1C(=O)N[C@@H](CO)C(=O)N[C@@H](CO)C(=O)NCC(=O)N[C@@H](C)C(=O)N1CCC[C@H]1C(=O)N1CCC[C@H]1C(=O)N1CCC[C@H]1C(=O)N[C@@H](CO)C(N)=O) [SEQ ID NO: (25)] | 0.171 nM | 0.17 nM
4 | HSQGTFTSDLSKQMDSRAAQLFIEWLKNGGPSSGAPPPS-NH2 [SEQ ID NO: (22)] | 0.127 nM | 0.0008 nM
5 | HSQGTFTSDLSKQMDSRRAQDFIEWLKNGGPSSGAPPPK(Palmitoyl)-NH2 [SEQ ID NO: (21)] | 0.547 nM | 0.0782 nM
6 | H[Ser(Me)]QGTFTSDLSKQMDSRRAQDFIEWLKNGGPSSGAPPPS-NH2 (N-terminus assumed; SMILES CC[C@H](C)[C@H](NC(=O)[C@H](Cc1ccccc1)NC(=O)[C@H](CC(=O)O)NC(=O)[C@H](CCC(N)=O)NC(=O)[C@H](C)NC(=O)[C@H](CCCNC(=N)N)NC(=O)[C@H](CCCNC(=N)N)NC(=O)[C@H](CO)NC(=O)[C@H](CC(=O)O)NC(=O)[C@H](CCSC)NC(=O)[C@H](CCC(N)=O)NC(=O)[C@H](CCCCN)NC(=O)[C@H](CO)NC(=O)[C@H](CC(C)C)NC(=O)[C@H](CC(=O)O)NC(=O)[C@H](CO)NC(=O)[C@@H](NC(=O)[C@H](Cc1ccccc1)NC(=O)[C@@H](NC(=O)CNC(=O)[C@H](CCC(N)=O)NC(=O)[C@H](COC)NC(=O)[C@@H](N)Cc1c[nH]cn1)[C@@H](C)O)[C@@H](C)O)C(=O)N[C@@H](CCC(=O)O)C(=O)N[C@@H](Cc1c[nH]c2ccccc12)C(=O)N[C@@H](CC(C)C)C(=O)N[C@@H](CCCCN)C(=O)N[C@@H](CC(N)=O)C(=O)NCC(=O)NCC(=O)N1CCC[C@H]1C(=O)N[C@@H](CO)C(=O)N[C@@H](CO)C(=O)NCC(=O)N[C@@H](C)C(=O)N1CCC[C@H]1C(=O)N1CCC[C@H]1C(=O)N1CCC[C@H]1C(=O)N[C@@H](CO)C(N)=O) [SEQ ID NO: (28)] | 6.48 nM | 0.128 nM
7 | HSQGTFTSDLSKQMDKRRAQDFIEWLKNGGPSSGAPPPS-NH2 [SEQ ID NO: (19)] | 0.052 nM | 0.017 nM
8 | H[dS]QGTFTSDLSKQMDSRRAKDFIEWLKNGGPSSGAPPPS-NH2 (N-terminus assumed; SMILES CC[C@H](C)[C@H](NC(=O)[C@H](Cc1ccccc1)NC(=O)[C@H](CC(=O)O)NC(=O)[C@H](CCCCN)NC(=O)[C@H](C)NC(=O)[C@H](CCCNC(=N)N)NC(=O)[C@H](CCCNC(=N)N)NC(=O)[C@H](CO)NC(=O)[C@H](CC(=O)O)NC(=O)[C@H](CCSC)NC(=O)[C@H](CCC(N)=O)NC(=O)[C@H](CCCCN)NC(=O)[C@H](CO)NC(=O)[C@H](CC(C)C)NC(=O)[C@H](CC(=O)O)NC(=O)[C@H](CO)NC(=O)[C@@H](NC(=O)[C@H](Cc1ccccc1)NC(=O)[C@@H](NC(=O)CNC(=O)[C@H](CCC(N)=O)NC(=O)[C@@H](CO)NC(=O)[C@@H](N)Cc1c[nH]cn1)[C@@H](C)O)[C@@H](C)O)C(=O)N[C@@H](CCC(=O)O)C(=O)N[C@@H](Cc1c[nH]c2ccccc12)C(=O)N[C@@H](CC(C)C)C(=O)N[C@@H](CCCCN)C(=O)N[C@@H](CC(N)=O)C(=O)NCC(=O)NCC(=O)N1CCC[C@H]1C(=O)N[C@@H](CO)C(=O)N[C@@H](CO)C(=O)NCC(=O)N[C@@H](C)C(=O)N1CCC[C@H]1C(=O)N1CCC[C@H]1C(=O)N1CCC[C@H]1C(=O)N[C@@H](CO)C(N)=O) [SEQ ID NO: (30)] | 1.05 nM | 0.0505 nM
9 | HSQGTFTSDLSKQMDSRRAQDFIEWLKNGGPSSGAPPPS-NH2 [SEQ ID NO: (9)] | 0.0264 nM | 0.0222 nM
10 | H[dS]QGTFTSDLSKQMESRRAQDFIEWLKSGGPSSGAPPPSK([GABA-Palmitoyl])-NH2 (N-terminus assumed; SMILES CCCCCCCCCCCCCCCC(=O)NCCCC(=O)NCCCC[C@H](NC(=O)[C@H](CO)NC(=O)[C@@H]1CCCN1C(=O)[C@@H]1CCCN1C(=O)[C@@H]1CCCN1C(=O)[C@H](C)NC(=O)CNC(=O)[C@H](CO)NC(=O)[C@H](CO)NC(=O)[C@@H]1CCCN1C(=O)CNC(=O)CNC(=O)[C@H](CO)NC(=O)[C@H](CCCCN)NC(=O)[C@H](CC(C)C)NC(=O)[C@H](Cc1c[nH]c2ccccc12)NC(=O)[C@H](CCC(=O)O)NC(=O)[C@@H](NC(=O)[C@H](Cc1ccccc1)NC(=O)[C@H](CC(=O)O)NC(=O)[C@H](CCC(N)=O)NC(=O)[C@H](C)NC(=O)[C@H](CCCNC(=N)N)NC(=O)[C@H](CCCNC(=N)N)NC(=O)[C@H](CO)NC(=O)[C@H](CCC(=O)O)NC(=O)[C@H](CCSC)NC(=O)[C@H](CCC(N)=O)NC(=O)[C@H](CCCCN)NC(=O)[C@H](CO)NC(=O)[C@H](CC(C)C)NC(=O)[C@H](CC(=O)O)NC(=O)[C@H](CO)NC(=O)[C@@H](NC(=O)[C@H](Cc1ccccc1)NC(=O)[C@@H](NC(=O)CNC(=O)[C@H](CCC(N)=O)NC(=O)[C@@H](CO)NC(=O)[C@@H](N)Cc1c[nH]cn1)[C@@H](C)O)[C@@H](C)O)[C@@H](C)CC)C(N)=O) [SEQ ID NO: (125)] | 0.0171 nM | 0.0108 nM
11 | HSEGTFTSDLSKQMDSRRAQDFIEWLKNGGPSSGAPPPS-NH2 [SEQ ID NO: (10)] | 16.7 nM | 0.0313 nM
